Data set [1] is described as follows: Luciferase assay with luciferin reagent, freeze-dried with BSA (Example 10). In kind it is biochemical. The procedure:
Luciferase stock was purchased from Promega Corporation (code E1701) and consisted of 1 mg of purified protein at a concentration of 13.5 mg/ml, correlating to 2.13×10^−4M using an approximate molecular weight of 60 kDa. The stock was thawed and refrozen (untouched, without addition of any excipients) at −45° C. as 44 aliquots. These aliquots were subsequently used for all experiments.
Luciferin was purchased from Promega Corporation as a kit that also included ATP (code E1500). This kit shall henceforth be referred to as luciferin reagent and consisted of pairs of vials that required mixing before use. One vial contained a lyophilised powder and the other 10 ml of a frozen liquid. To produce stocks, these vials were mixed and then refrozen as 1 ml aliquots at −20° C. in standard 1.5 ml Eppendorf tubes. Vials and reconstituted luciferin reagent were stored at −20° C. in an opaque box and only removed under conditions of near-darkness. […]
The luciferase assay involved the mixing of various concentrations of luciferase with an undiluted aliquot of luciferin reagent in black opaque 96 well plates. The initial (linear) phase of this luminogenic reaction was then immediately quantified by a luminometer. As per the manufacturer's recommendation, luciferase samples were of a 100 μl volume and luminescence was initiated by addition of 100 μl of luciferin reagent. […]

Data set [2] in a line: Luciferase luminescence assay after freeze-drying (Example 4). In kind it is biochemical. The settings on record: freeze-dried in excipient of 1.092M sucrose, 0.0499M stachyose and 27 nM, 2.7 nM or 0.27 nM PEI. The procedure:
The final concentrations of PEI and sugars were: • PEI: 27 nM, 2.7 nM or 0.27 nM • sucrose: 1.092 M, and • stachyose: 0.0499M.
All vials were set up in triplicate.
The vials contained a free-flowing freeze-dried powder. The powder was reconstituted by adding 1 ml PBS. […] Luciferase assay reagent was added to each well according to manufacturer's instructions and luminescence was read on a Synergy 2 luminometer.

As to “Luciferase: luciferase enzyme purchased from Promega (code E1701 in Example 10)”, in data set [1] (both added together before freeze-drying), the “lyoprotectant effects of sugar mix and PEI on luciferase activity” value is “synergistic”. The “lyoprotectant contribution of excipient component on luciferase activity” value in data set [1] (sugar mix or PEI added after freeze-drying) was “wholly negates its contribution”. Moreover, the “thermal stability of luciferase (luminescence)” value in data set [2] was “improved thermal stability”.

For the origin of these results see US20130071431A1, “Method for Preserving Polypeptides Using A Sugar and Polyethyleneimine” (Stabilitech Ltd., priority 2008, published 2013).
